Measured values as given in patent EP1752538A1 (BAYER CORPORATION, dated 1997).
Like-named read-outs stand apart in the source and are kept apart here. Where no end group is shown, it is not given here.

Assays:
[1] = target: T1, bovine pancreatic kallikrein (bovine); assay: enzyme inhibition kinetics, kallikrein 92.0 pM
T1 construct: also called immobilized bovine pancreatic kallikrein; kallikrein-sepharose

Bovine chymotrypsin = Bovine chymotrypsin (bovine, UniProt P00766 1-245); assay: enzyme inhibition kinetics, chymotrypsin 5 nM
human plasmin [2] = target: T2, human plasmin (human, UniProt P00747 97-810); assay: enzyme inhibition kinetics, plasmin 50 pM
T2 construct: Active enzyme

[3] = target: T3, bovine trypsin (type III) (bovine, UniProt P00760 24-246); assay: enzyme inhibition kinetics, trypsin 48.5 pM
T3 construct: Active enzyme, active-site titrated

human factor Xa = human factor Xa (human, UniProt P00742 41-488, limits assumed); assay: enzyme inhibition kinetics, factor Xa 0.87 nM
[4] = target: T4, tissue plasminogen activator (single chain form from human melanoma cell culture) (human, UniProt P00750 36-562, limits assumed); assay: enzyme inhibition, tPA 7.5 nM, chromogenic pNA substrate
T4 construct: also called tPA

[5] = target: T1, bovine pancreatic kallikrein; assay: enzyme inhibition kinetics, kallikrein 100 pM
Tissue Factor VIIa = target: T5, Tissue Factor VIIa; assay: enzyme inhibition
T5 construct: Complex of tissue factor and factor VIIa; no method is described for it; also called tissue factor VIIa complex

[6] = target: T3, bovine trypsin (type III); assay: enzyme inhibition kinetics, trypsin 48.5 pM; remark: listed apart in the source
Factor XIa = target: T6, Factor XIa (Homo sapiens (Human), UniProt P03951 19-387; P03951 388-625, Activated enzyme cleaved after Arg387 of the precursor. The native molecule is a disulfide-linked homodimer of heavy-plu [CUT]); assay: enzyme inhibition kinetics, factor XIa 0.1 nM
T6 construct: also called FXIa

human tissue kallikrein = human tissue kallikrein (human, UniProt P06870 25-262); assay: enzyme inhibition kinetics, tissue kallikrein 0.35 nM, PFR-AMC substrate
human plasmin [7] = target: T2, human plasmin; assay: enzyme inhibition kinetics, plasmin 50 pM; remark: listed apart in the source
human plasma kallikrein = target: T7, human plasma kallikrein (human, UniProt P03952 20-638); assay: enzyme inhibition kinetics, kallikrein 2.5 nM
T7 construct: Active enzyme
T7 sequence (P03952 20-638 limits assumed): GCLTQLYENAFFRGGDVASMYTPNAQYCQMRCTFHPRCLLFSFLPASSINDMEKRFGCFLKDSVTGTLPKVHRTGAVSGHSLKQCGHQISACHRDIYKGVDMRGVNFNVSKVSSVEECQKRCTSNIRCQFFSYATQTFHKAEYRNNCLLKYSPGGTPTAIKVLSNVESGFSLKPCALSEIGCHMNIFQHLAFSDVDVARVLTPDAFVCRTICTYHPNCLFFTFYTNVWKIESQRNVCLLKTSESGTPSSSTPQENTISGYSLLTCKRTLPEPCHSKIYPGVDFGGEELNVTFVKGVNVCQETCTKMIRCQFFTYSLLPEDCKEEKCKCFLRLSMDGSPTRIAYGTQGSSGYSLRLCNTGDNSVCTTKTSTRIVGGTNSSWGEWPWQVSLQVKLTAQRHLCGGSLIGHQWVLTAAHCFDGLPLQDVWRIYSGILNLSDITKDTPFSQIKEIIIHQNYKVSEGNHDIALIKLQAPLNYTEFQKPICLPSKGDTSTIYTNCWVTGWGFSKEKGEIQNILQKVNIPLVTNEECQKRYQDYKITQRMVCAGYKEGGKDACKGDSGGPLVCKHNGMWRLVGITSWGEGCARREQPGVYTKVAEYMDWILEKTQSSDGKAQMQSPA

T3 sequence (P00760 24-246): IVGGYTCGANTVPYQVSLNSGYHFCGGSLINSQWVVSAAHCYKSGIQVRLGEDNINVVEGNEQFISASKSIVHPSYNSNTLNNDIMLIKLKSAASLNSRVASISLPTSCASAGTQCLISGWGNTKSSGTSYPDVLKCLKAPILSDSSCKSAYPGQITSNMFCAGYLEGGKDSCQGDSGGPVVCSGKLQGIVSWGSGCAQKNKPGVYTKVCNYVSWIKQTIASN
T2 sequence (P00747 97-810 limits assumed): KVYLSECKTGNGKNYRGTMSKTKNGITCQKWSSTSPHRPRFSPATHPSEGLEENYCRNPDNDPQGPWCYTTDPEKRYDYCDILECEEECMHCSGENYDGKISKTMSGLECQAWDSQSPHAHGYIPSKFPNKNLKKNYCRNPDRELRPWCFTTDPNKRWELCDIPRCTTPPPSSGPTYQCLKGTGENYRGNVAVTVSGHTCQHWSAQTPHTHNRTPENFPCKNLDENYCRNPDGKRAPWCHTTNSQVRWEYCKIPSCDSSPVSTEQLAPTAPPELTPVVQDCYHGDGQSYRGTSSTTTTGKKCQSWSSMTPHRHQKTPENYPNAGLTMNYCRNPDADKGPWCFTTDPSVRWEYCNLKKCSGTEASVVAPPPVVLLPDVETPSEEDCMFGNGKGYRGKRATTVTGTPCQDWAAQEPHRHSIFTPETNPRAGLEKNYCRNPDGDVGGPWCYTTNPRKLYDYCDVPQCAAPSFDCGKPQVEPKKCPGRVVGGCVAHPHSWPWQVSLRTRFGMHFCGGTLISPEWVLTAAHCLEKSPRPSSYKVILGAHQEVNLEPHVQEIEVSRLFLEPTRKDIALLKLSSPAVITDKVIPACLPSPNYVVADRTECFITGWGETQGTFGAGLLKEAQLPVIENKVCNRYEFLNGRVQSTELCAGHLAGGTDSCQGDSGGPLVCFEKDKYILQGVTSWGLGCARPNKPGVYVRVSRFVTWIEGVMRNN
T6 sequence (P03951 19-387 limits assumed, form in doubt, chain 1 of 2): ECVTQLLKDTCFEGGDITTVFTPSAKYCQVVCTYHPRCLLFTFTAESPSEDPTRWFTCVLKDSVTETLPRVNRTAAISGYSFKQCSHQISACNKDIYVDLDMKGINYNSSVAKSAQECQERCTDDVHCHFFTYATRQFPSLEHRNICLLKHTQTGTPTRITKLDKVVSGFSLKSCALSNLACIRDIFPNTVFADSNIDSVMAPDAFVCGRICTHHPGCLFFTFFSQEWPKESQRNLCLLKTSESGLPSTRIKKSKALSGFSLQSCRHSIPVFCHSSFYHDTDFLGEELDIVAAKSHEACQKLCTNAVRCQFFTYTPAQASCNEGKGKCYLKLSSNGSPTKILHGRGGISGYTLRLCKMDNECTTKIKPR
T6 sequence (P03951 388-625 limits assumed, form in doubt, chain 2 of 2): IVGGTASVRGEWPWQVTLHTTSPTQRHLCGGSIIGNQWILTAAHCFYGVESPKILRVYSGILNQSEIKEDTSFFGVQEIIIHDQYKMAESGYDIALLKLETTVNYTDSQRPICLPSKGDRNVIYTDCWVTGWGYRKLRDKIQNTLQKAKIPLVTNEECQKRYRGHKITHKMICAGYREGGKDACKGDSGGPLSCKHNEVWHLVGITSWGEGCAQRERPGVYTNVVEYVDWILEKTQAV
T4 sequence (P00750 36-562 limits assumed): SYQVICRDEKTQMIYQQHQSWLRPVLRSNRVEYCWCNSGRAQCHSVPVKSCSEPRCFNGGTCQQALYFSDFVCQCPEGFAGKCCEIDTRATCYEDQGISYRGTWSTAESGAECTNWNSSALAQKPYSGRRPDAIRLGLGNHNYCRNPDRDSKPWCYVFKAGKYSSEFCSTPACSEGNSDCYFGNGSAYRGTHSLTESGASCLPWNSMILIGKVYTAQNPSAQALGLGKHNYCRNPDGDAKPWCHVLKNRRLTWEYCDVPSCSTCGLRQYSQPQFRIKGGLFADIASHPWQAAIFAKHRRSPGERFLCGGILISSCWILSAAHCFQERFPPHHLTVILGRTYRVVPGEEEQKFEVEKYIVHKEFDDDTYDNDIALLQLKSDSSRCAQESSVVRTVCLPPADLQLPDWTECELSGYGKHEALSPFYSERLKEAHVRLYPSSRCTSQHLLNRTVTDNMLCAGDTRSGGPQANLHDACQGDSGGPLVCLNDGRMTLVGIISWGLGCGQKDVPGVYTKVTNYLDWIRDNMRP
human tissue kallikrein, sequence (P06870 25-262 limits assumed): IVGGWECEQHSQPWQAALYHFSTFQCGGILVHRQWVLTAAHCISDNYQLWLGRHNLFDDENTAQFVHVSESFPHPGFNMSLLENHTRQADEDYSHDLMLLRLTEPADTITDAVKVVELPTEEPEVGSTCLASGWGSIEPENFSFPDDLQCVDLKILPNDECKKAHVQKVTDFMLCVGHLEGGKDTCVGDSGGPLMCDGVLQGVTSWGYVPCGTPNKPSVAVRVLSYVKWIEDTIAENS

B1: synthetic placental bikunin (7-64), first preparation (other)
chain: IHDFCLVSKVVGRCRASMPRWWYNVTDGSCQLFVYGGCDGNSNNYLTKEECLKKCATV
modifications: ends and bridges not checked; also: may be incompletely deprotected before refolding
notes: also called placental bikunin fragment (7-64); KID1
B1 was tested, and the Ki [1] was 0.4 nM and the Ki (Bovine chymotrypsin) was 0.6 nM.

B2: native human placental bikunin isolated from human placenta (other)
chain: ADRERSIHDFCLVSKVVGRCRASMPRWWYNVTDGSCQLFVYGGCDGNSNNYLTKEECLKKCATVTENATGDLATSRNAADSSVPSAPRRQDSEDHSSDMFNYEEYCTANAVTGPCRASFPRWYFDVERNSCNNFIYGGCRGNKNSYRSEEACMLRCFRQQENPPLPLGSKVVVLAGAVS
modifications: asparagine 30 silent in sequencing, likely glycosylated
notes: Soluble protein purified from placenta; A minor species starts at residue 6; also called native Placental Bikunin (1-179)
B2 was tested, and the Ki (human plasmin [2]) was 1.9 nM and the Ki [3] was 0.13 nM.

B3: recombinant placental bikunin (1-170) from baculovirus / Sf9 cells (other)
chain: ADRERSIHDFCLVSKVVGRCRASMPRWWYNVTDGSCQLFVYGGCDGNSNNYLTKEECLKKCATVTENATGDLATSRNAADSSVPSAPRRQDSEDHSSDMFNYEEYCTANAVTGPCRASFPRWYFDVERNSCNNFIYGGCRGNKNSYRSEEACMLRCFRQQENPPLPLGSK
modifications: asparagine 30 silent in sequencing, consistent with glycosylation
notes: signal peptide correctly removed (N-terminus ADRER); also called Recombinant Bikunin; Sf9-derived human placental bikunin (1-170)
B3 was tested, and the Ki (human factor Xa) was 180 nM, the Ki [4] was < 60 nM and the Ki [5] was 0.12 nM. For the same binder, the Ki (Tissue Factor VIIa) was 800 nM, the Ki [6] was 0.064 nM and the Ki (Factor XIa) was 3 nM. The Ki (human tissue kallikrein) was 0.04 nM, the Ki (human plasmin [7]) was 0.23 nM and the Ki (human plasma kallikrein) was 0.18 nM.
